Results as given in article doi:10.1101/2020.11.10.376558.

Test system: GST-N571 (CIZ1 N-terminal fragment with PLD1 and PLD2) (Mus musculus)
Test: EMSA

| Substance | K half [nM] |
| --- | --- |
| Xist repeat A sense | 200 |
| Xist repeat E proximal (sense) | 100 |
